# T1: human α-CGRP (Homo sapiens, UniProt P06881)
# T1 construct: 1-37 (WT); purchased; host or cells: synthetic peptide
# T1 sequence (P06881 83-119 limits assumed): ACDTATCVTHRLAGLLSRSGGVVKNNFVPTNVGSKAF
# T2: rat α-CGRP (Rattus norvegicus, UniProt P01256)
# T2 construct: rat α (1-37); host or cells: synthetic peptide
# T2 sequence (P01256 83-119 limits assumed): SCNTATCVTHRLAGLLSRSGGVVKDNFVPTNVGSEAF
# How the values were obtained:
# [1] = molecular target: T1, human α-CGRP; experiment: Biacore affinity of antibody G1 Fab and variants to human α-CGRP; assay type: binding; conditions: 37° C., Fab, screening mode unless underlined
# Procedure, shortened: (§1)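 Fab fragments flowed over N-biotinylated CGRP captured on SA chip in HBS-EP pH 7.4; titration series fit globally to 1:1 Langmuir model, KD = koff/kon. For very slow off-rates, kon from 550 nM–1 nM series with 30 s dissociation, koff from 2-hour dissociation.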
# [2] = molecular target: T2, rat α-CGRP; experiment: Biacore affinity of antibody G1 Fab and variants to rat α-CGRP; assay type: binding; conditions: 37° C., Fab, screening mode unless underlined
# Procedure, shortened: as §1
Molecule,α-human koff [1] [s⁻¹],α-rat koff [2] [s⁻¹]
"M28: G1 variant: L1 R28N,T30D; H2 E54R,A57N; HC-FW3 L99T,A100V (antibody, V domains shown) VH: EVQLVESGGGLVQPGGSLRLSCAASGFTFSNYWISWVRQAPGKGLEWVAEIRSRSDNSATHYAEAVKGRFTISRDNAKNSLYLQMNSLRAEDTAVYYCTVYFDYGLAIQNYWGQGTLVTVSS VL: EIVLTQSPATLSLSPGERATLSCKASKNVDTYVSWYQQKPGQAPRLLIYGASNRYLGIPARFSGSGSGTDFTLTISSLEPEDFAVYYCSQSYNYPYTFGQGTKLEIK",9.96e-05,0.00125
"M35: G1 variant: L1 R28N,T30G; H2 E54K,A57S; HC-FW3 L99T,A100V (antibody, V domains shown) VH: EVQLVESGGGLVQPGGSLRLSCAASGFTFSNYWISWVRQAPGKGLEWVAEIRSKSDSSATHYAEAVKGRFTISRDNAKNSLYLQMNSLRAEDTAVYYCTVYFDYGLAIQNYWGQGTLVTVSS VL: EIVLTQSPATLSLSPGERATLSCKASKNVGTYVSWYQQKPGQAPRLLIYGASNRYLGIPARFSGSGSGTDFTLTISSLEPEDFAVYYCSQSYNYPYTFGQGTKLEIK",0.000339,0.00399
"M30: G1 variant: L1 R28N,T30G; H2 E54K,A57E; HC-FW3 L99T,A100V (antibody, V domains shown) VH: EVQLVESGGGLVQPGGSLRLSCAASGFTFSNYWISWVRQAPGKGLEWVAEIRSKSDESATHYAEAVKGRFTISRDNAKNSLYLQMNSLRAEDTAVYYCTVYFDYGLAIQNYWGQGTLVTVSS VL: EIVLTQSPATLSLSPGERATLSCKASKNVGTYVSWYQQKPGQAPRLLIYGASNRYLGIPARFSGSGSGTDFTLTISSLEPEDFAVYYCSQSYNYPYTFGQGTKLEIK",0.00059,0.00638
"M34: G1 variant: L1 R28N,T30G; H2 E54K,A57N,S58T; HC-FW3 L99T,A100V (antibody, V domains shown) VH: EVQLVESGGGLVQPGGSLRLSCAASGFTFSNYWISWVRQAPGKGLEWVAEIRSKSDNTATHYAEAVKGRFTISRDNAKNSLYLQMNSLRAEDTAVYYCTVYFDYGLAIQNYWGQGTLVTVSS VL: EIVLTQSPATLSLSPGERATLSCKASKNVGTYVSWYQQKPGQAPRLLIYGASNRYLGIPARFSGSGSGTDFTLTISSLEPEDFAVYYCSQSYNYPYTFGQGTKLEIK",0.000646,0.00217
"M29: G1 variant: L1 R28N,T30G; HC-FW3 L99T,A100V (antibody, V domains shown) VH: EVQLVESGGGLVQPGGSLRLSCAASGFTFSNYWISWVRQAPGKGLEWVAEIRSESDASATHYAEAVKGRFTISRDNAKNSLYLQMNSLRAEDTAVYYCTVYFDYGLAIQNYWGQGTLVTVSS VL: EIVLTQSPATLSLSPGERATLSCKASKNVGTYVSWYQQKPGQAPRLLIYGASNRYLGIPARFSGSGSGTDFTLTISSLEPEDFAVYYCSQSYNYPYTFGQGTKLEIK",0.00038,0.00359
"M31: G1 variant: L1 R28N,T30G; H2 E54K,A57G; HC-FW3 L99T,A100V (antibody, V domains shown) VH: EVQLVESGGGLVQPGGSLRLSCAASGFTFSNYWISWVRQAPGKGLEWVAEIRSKSDGSATHYAEAVKGRFTISRDNAKNSLYLQMNSLRAEDTAVYYCTVYFDYGLAIQNYWGQGTLVTVSS VL: EIVLTQSPATLSLSPGERATLSCKASKNVGTYVSWYQQKPGQAPRLLIYGASNRYLGIPARFSGSGSGTDFTLTISSLEPEDFAVYYCSQSYNYPYTFGQGTKLEIK",0.000347,0.00361
"M32: G1 variant: L1 R28N,T30G; H2 E54K,A57H; HC-FW3 L99T,A100V (antibody, V domains shown) VH: EVQLVESGGGLVQPGGSLRLSCAASGFTFSNYWISWVRQAPGKGLEWVAEIRSKSDHSATHYAEAVKGRFTISRDNAKNSLYLQMNSLRAEDTAVYYCTVYFDYGLAIQNYWGQGTLVTVSS VL: EIVLTQSPATLSLSPGERATLSCKASKNVGTYVSWYQQKPGQAPRLLIYGASNRYLGIPARFSGSGSGTDFTLTISSLEPEDFAVYYCSQSYNYPYTFGQGTKLEIK",0.000271,0.00296
"M33: G1 variant: L1 R28N,T30G; H2 E54K,A57N,S58G; HC-FW3 L99T,A100V (antibody, V domains shown) VH: EVQLVESGGGLVQPGGSLRLSCAASGFTFSNYWISWVRQAPGKGLEWVAEIRSKSDNGATHYAEAVKGRFTISRDNAKNSLYLQMNSLRAEDTAVYYCTVYFDYGLAIQNYWGQGTLVTVSS VL: EIVLTQSPATLSLSPGERATLSCKASKNVGTYVSWYQQKPGQAPRLLIYGASNRYLGIPARFSGSGSGTDFTLTISSLEPEDFAVYYCSQSYNYPYTFGQGTKLEIK",0.00075,0.00922

# Now from value to molecule:
α-human koff [1] [s⁻¹],α-rat koff [2] [s⁻¹],Molecule
0.000218,0.00511,"M38: G1 variant: L1 R28N,T30W; HC-FW3 L99T,A100V (antibody, V domains shown) VH: EVQLVESGGGLVQPGGSLRLSCAASGFTFSNYWISWVRQAPGKGLEWVAEIRSESDASATHYAEAVKGRFTISRDNAKNSLYLQMNSLRAEDTAVYYCTVYFDYGLAIQNYWGQGTLVTVSS VL: EIVLTQSPATLSLSPGERATLSCKASKNVWTYVSWYQQKPGQAPRLLIYGASNRYLGIPARFSGSGSGTDFTLTISSLEPEDFAVYYCSQSYNYPYTFGQGTKLEIK"
0.000226,0.00145,"M37: G1 variant: L1 R28N,T30S; H2 A57G; HC-FW3 L99T,A100V (antibody, V domains shown) VH: EVQLVESGGGLVQPGGSLRLSCAASGFTFSNYWISWVRQAPGKGLEWVAEIRSESDGSATHYAEAVKGRFTISRDNAKNSLYLQMNSLRAEDTAVYYCTVYFDYGLAIQNYWGQGTLVTVSS VL: EIVLTQSPATLSLSPGERATLSCKASKNVSTYVSWYQQKPGQAPRLLIYGASNRYLGIPARFSGSGSGTDFTLTISSLEPEDFAVYYCSQSYNYPYTFGQGTKLEIK"
0.000239,0.00479,"M36: G1 variant: L1 R28N,T30R; HC-FW3 L99T,A100V (antibody, V domains shown) VH: EVQLVESGGGLVQPGGSLRLSCAASGFTFSNYWISWVRQAPGKGLEWVAEIRSESDASATHYAEAVKGRFTISRDNAKNSLYLQMNSLRAEDTAVYYCTVYFDYGLAIQNYWGQGTLVTVSS VL: EIVLTQSPATLSLSPGERATLSCKASKNVRTYVSWYQQKPGQAPRLLIYGASNRYLGIPARFSGSGSGTDFTLTISSLEPEDFAVYYCSQSYNYPYTFGQGTKLEIK"
0.000425,0.00995,"M39: G1 variant: L1 R28N; L2 G50A,L56T; H2 A57N,S58Y; HC-FW3 L99T,A100V (antibody, V domains shown) VH: EVQLVESGGGLVQPGGSLRLSCAASGFTFSNYWISWVRQAPGKGLEWVAEIRSESDNYATHYAEAVKGRFTISRDNAKNSLYLQMNSLRAEDTAVYYCTVYFDYGLAIQNYWGQGTLVTVSS VL: EIVLTQSPATLSLSPGERATLSCKASKNVTTYVSWYQQKPGQAPRLLIYAASNRYTGIPARFSGSGSGTDFTLTISSLEPEDFAVYYCSQSYNYPYTFGQGTKLEIK"
